Reference: patent publication US20200087373A1 (UNIVERSITY OF COPENHAGEN, published 2020)
Ends that are not written are not given here. * marks the point of attachment. Stearoyl = CCCCCCCCCCCCCCCCCC(=O)*; Palmitoyl = CCCCCCCCCCCCCCCC(=O)*; Myristoyl = CCCCCCCCCCCCCC(=O)*; Lauroyl = CCCCCCCCCCCC(=O)*; Dodecyl = CCCCCCCCCCCC*

T1: human GIP receptor (human, UniProt P48546 22-466)
T1 sequence (looked up): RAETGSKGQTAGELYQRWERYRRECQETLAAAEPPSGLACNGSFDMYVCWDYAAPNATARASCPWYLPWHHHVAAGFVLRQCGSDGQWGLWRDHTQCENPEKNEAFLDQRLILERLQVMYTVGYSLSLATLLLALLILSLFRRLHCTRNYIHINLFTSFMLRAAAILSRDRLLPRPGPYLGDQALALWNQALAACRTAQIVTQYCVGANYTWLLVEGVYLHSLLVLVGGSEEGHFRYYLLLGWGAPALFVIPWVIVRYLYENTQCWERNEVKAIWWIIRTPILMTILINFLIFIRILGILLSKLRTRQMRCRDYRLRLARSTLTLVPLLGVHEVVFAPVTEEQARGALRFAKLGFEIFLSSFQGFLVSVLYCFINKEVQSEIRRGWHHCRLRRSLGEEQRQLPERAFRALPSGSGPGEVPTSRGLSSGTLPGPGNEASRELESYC

B1: AT107 [hGIP(3-30)NH2[T5W; D15E; H18A]-C16/16] (peptide)
peptide: EGWFISDYSIAMEK(Palmitoyl)IAQQDFVNWLLAQK-NH2
modifications: N-terminus assumed
SMILES: CCCCCCCCCCCCCCCC(=O)NCCCC[C@H](NC(=O)[C@H](CCC(=O)O)NC(=O)[C@H](CCSC)NC(=O)[C@H](C)NC(=O)[C@@H](NC(=O)[C@H](CO)NC(=O)[C@H](Cc1ccc(O)cc1)NC(=O)[C@H](CC(=O)O)NC(=O)[C@H](CO)NC(=O)[C@@H](NC(=O)[C@H](Cc1ccccc1)NC(=O)[C@H](Cc1c[nH]c2ccccc12)NC(=O)CNC(=O)[C@@H](N)CCC(=O)O)[C@@H](C)CC)[C@@H](C)CC)C(=O)N[C@H](C(=O)N[C@@H](C)C(=O)N[C@@H](CCC(N)=O)C(=O)N[C@@H](CCC(N)=O)C(=O)N[C@@H](CC(=O)O)C(=O)N[C@@H](Cc1ccccc1)C(=O)N[C@H](C(=O)N[C@@H](CC(N)=O)C(=O)N[C@@H](Cc1c[nH]c2ccccc12)C(=O)N[C@@H](CC(C)C)C(=O)N[C@@H](CC(C)C)C(=O)N[C@@H](C)C(=O)N[C@@H](CCC(N)=O)C(=O)N[C@@H](CCCCN)C(N)=O)C(C)C)[C@@H](C)CC
B2: AT117 [hGIP(3-30)NH2[H18K]-C16/18] (peptide)
peptide: EGTFISDYSIAMDKIK(Palmitoyl)QQDFVNWLLAQK-NH2
modifications: N-terminus assumed
SMILES: CCCCCCCCCCCCCCCC(=O)NCCCC[C@H](NC(=O)[C@@H](NC(=O)[C@H](CCCCN)NC(=O)[C@H](CC(=O)O)NC(=O)[C@H](CCSC)NC(=O)[C@H](C)NC(=O)[C@@H](NC(=O)[C@H](CO)NC(=O)[C@H](Cc1ccc(O)cc1)NC(=O)[C@H](CC(=O)O)NC(=O)[C@H](CO)NC(=O)[C@@H](NC(=O)[C@H](Cc1ccccc1)NC(=O)[C@@H](NC(=O)CNC(=O)[C@@H](N)CCC(=O)O)[C@@H](C)O)[C@@H](C)CC)[C@@H](C)CC)[C@@H](C)CC)C(=O)N[C@@H](CCC(N)=O)C(=O)N[C@@H](CCC(N)=O)C(=O)N[C@@H](CC(=O)O)C(=O)N[C@@H](Cc1ccccc1)C(=O)N[C@H](C(=O)N[C@@H](CC(N)=O)C(=O)N[C@@H](Cc1c[nH]c2ccccc12)C(=O)N[C@@H](CC(C)C)C(=O)N[C@@H](CC(C)C)C(=O)N[C@@H](C)C(=O)N[C@@H](CCC(N)=O)C(=O)N[C@@H](CCCCN)C(N)=O)C(C)C
B3: AT143 [hGIP(3-30)NH2[M14L; H18K]-C16/18] (peptide)
peptide: EGTFISDYSIALDKIK(Palmitoyl)QQDFVNWLLAQK-NH2
modifications: N-terminus assumed
SMILES: CCCCCCCCCCCCCCCC(=O)NCCCC[C@H](NC(=O)[C@@H](NC(=O)[C@H](CCCCN)NC(=O)[C@H](CC(=O)O)NC(=O)[C@H](CC(C)C)NC(=O)[C@H](C)NC(=O)[C@@H](NC(=O)[C@H](CO)NC(=O)[C@H](Cc1ccc(O)cc1)NC(=O)[C@H](CC(=O)O)NC(=O)[C@H](CO)NC(=O)[C@@H](NC(=O)[C@H](Cc1ccccc1)NC(=O)[C@@H](NC(=O)CNC(=O)[C@@H](N)CCC(=O)O)[C@@H](C)O)[C@@H](C)CC)[C@@H](C)CC)[C@@H](C)CC)C(=O)N[C@@H](CCC(N)=O)C(=O)N[C@@H](CCC(N)=O)C(=O)N[C@@H](CC(=O)O)C(=O)N[C@@H](Cc1ccccc1)C(=O)N[C@H](C(=O)N[C@@H](CC(N)=O)C(=O)N[C@@H](Cc1c[nH]c2ccccc12)C(=O)N[C@@H](CC(C)C)C(=O)N[C@@H](CC(C)C)C(=O)N[C@@H](C)C(=O)N[C@@H](CCC(N)=O)C(=O)N[C@@H](CCCCN)C(N)=O)C(C)C
B4: AT116 [hGIP(3-30)NH2-C12/18] (peptide)
peptide: EGTFISDYSIAMDKIK(Lauroyl)QQDFVNWLLAQK-NH2
modifications: N-terminus assumed
SMILES: CCCCCCCCCCCC(=O)NCCCC[C@H](NC(=O)[C@@H](NC(=O)[C@H](CCCCN)NC(=O)[C@H](CC(=O)O)NC(=O)[C@H](CCSC)NC(=O)[C@H](C)NC(=O)[C@@H](NC(=O)[C@H](CO)NC(=O)[C@H](Cc1ccc(O)cc1)NC(=O)[C@H](CC(=O)O)NC(=O)[C@H](CO)NC(=O)[C@@H](NC(=O)[C@H](Cc1ccccc1)NC(=O)[C@@H](NC(=O)CNC(=O)[C@@H](N)CCC(=O)O)[C@@H](C)O)[C@@H](C)CC)[C@@H](C)CC)[C@@H](C)CC)C(=O)N[C@@H](CCC(N)=O)C(=O)N[C@@H](CCC(N)=O)C(=O)N[C@@H](CC(=O)O)C(=O)N[C@@H](Cc1ccccc1)C(=O)N[C@H](C(=O)N[C@@H](CC(N)=O)C(=O)N[C@@H](Cc1c[nH]c2ccccc12)C(=O)N[C@@H](CC(C)C)C(=O)N[C@@H](CC(C)C)C(=O)N[C@@H](C)C(=O)N[C@@H](CCC(N)=O)C(=O)N[C@@H](CCCCN)C(N)=O)C(C)C
B5: AT131 [hGIP(3-30)NH2[D15E; H18A]-C16/16] (peptide)
peptide: EGTFISDYSIAMEK(Palmitoyl)IAQQDFVNWLLAQK-NH2
modifications: N-terminus assumed
SMILES: CCCCCCCCCCCCCCCC(=O)NCCCC[C@H](NC(=O)[C@H](CCC(=O)O)NC(=O)[C@H](CCSC)NC(=O)[C@H](C)NC(=O)[C@@H](NC(=O)[C@H](CO)NC(=O)[C@H](Cc1ccc(O)cc1)NC(=O)[C@H](CC(=O)O)NC(=O)[C@H](CO)NC(=O)[C@@H](NC(=O)[C@H](Cc1ccccc1)NC(=O)[C@@H](NC(=O)CNC(=O)[C@@H](N)CCC(=O)O)[C@@H](C)O)[C@@H](C)CC)[C@@H](C)CC)C(=O)N[C@H](C(=O)N[C@@H](C)C(=O)N[C@@H](CCC(N)=O)C(=O)N[C@@H](CCC(N)=O)C(=O)N[C@@H](CC(=O)O)C(=O)N[C@@H](Cc1ccccc1)C(=O)N[C@H](C(=O)N[C@@H](CC(N)=O)C(=O)N[C@@H](Cc1c[nH]c2ccccc12)C(=O)N[C@@H](CC(C)C)C(=O)N[C@@H](CC(C)C)C(=O)N[C@@H](C)C(=O)N[C@@H](CCC(N)=O)C(=O)N[C@@H](CCCCN)C(N)=O)C(C)C)[C@@H](C)CC
B6: AT144 [hGIP(3-30)NH2[K16R; H18K; K30R]-C16/18] (peptide)
peptide: EGTFISDYSIAMDRIK(Palmitoyl)QQDFVNWLLAQR-NH2
modifications: N-terminus assumed
SMILES: CCCCCCCCCCCCCCCC(=O)NCCCC[C@H](NC(=O)[C@@H](NC(=O)[C@H](CCCNC(=N)N)NC(=O)[C@H](CC(=O)O)NC(=O)[C@H](CCSC)NC(=O)[C@H](C)NC(=O)[C@@H](NC(=O)[C@H](CO)NC(=O)[C@H](Cc1ccc(O)cc1)NC(=O)[C@H](CC(=O)O)NC(=O)[C@H](CO)NC(=O)[C@@H](NC(=O)[C@H](Cc1ccccc1)NC(=O)[C@@H](NC(=O)CNC(=O)[C@@H](N)CCC(=O)O)[C@@H](C)O)[C@@H](C)CC)[C@@H](C)CC)[C@@H](C)CC)C(=O)N[C@@H](CCC(N)=O)C(=O)N[C@@H](CCC(N)=O)C(=O)N[C@@H](CC(=O)O)C(=O)N[C@@H](Cc1ccccc1)C(=O)N[C@H](C(=O)N[C@@H](CC(N)=O)C(=O)N[C@@H](Cc1c[nH]c2ccccc12)C(=O)N[C@@H](CC(C)C)C(=O)N[C@@H](CC(C)C)C(=O)N[C@@H](C)C(=O)N[C@@H](CCC(N)=O)C(=O)N[C@@H](CCCNC(=N)N)C(N)=O)C(C)C

Biological target: T1, human GIP receptor
Assay: cell-based or functional assay

Row | Binder | cAMP agonism, EC50 (log) [log M] | cAMP agonism, Emax [%] | cAMP agonism, nM (EC50) [nM] | cAMP antagonism, log (IC50) [log M] | cAMP antagonism, nM (IC50) [nM]
1 | B1 | -5.9 | 23 | 1300 | -7.1 | 77
2 | B2 |  | 0 |  | -7.8 | 15
3 | EGTFISDYSIAMDKIHQQDFVNWLLAQK(Palmitoyl)-NH2 [AT106 [hGIP(3-30)NH2-C16/30]] | -6.4 | 64 | 390 |  | 
4 | Stearoyl-EGTFISDYSIAMDKIHQQDFVNWLLAQK-NH2 [AT113 [hGIP(3-30)NH2-C18/3]] | -8 | 77 | 9.9 |  | 
5 | B3 | -6.3 | 40 | 521 | -7.8 | 15.1
6 | EGTFISDYSIAMDK(Palmitoyl)IHQQDFVNWLLAQK-NH2 [AT105 [hGIP(3-30)NH2-C16/16]] | -5.9 | 34 | 1140 | -7.6 | 24
7 | B4 |  | 0 |  | -7.9 | 12
8 | B5 | -4.9 | 35 | 11800 | -7.4 | 65
9 | EGTFISDYSIAMDKIHQQDFVNWLLAQK(Myristoyl)-NH2 [AT112 [hGIP(3-30)NH2-C14/30]] | -5.4 | 29 | 3950 |  | 
10 | EGTFISDYSIAMDK(Myristoyl)IHQQDFVNWLLAQK-NH2 [AT111 [hGIP(3-30)NH2-C14/16]] |  | 0 |  | -7.6 | 22
11 | B6 |  | 0 |  | -7.3 | 53.3
12 | Myristoyl-EGTFISDYSIAMDKIHQQDFVNWLLAQK-NH2 [AT110 [hGIP(3-30)NH2-C14/3]] | -8.4 | 64 | 3.6 |  | 
13 | EGTFISDYSIAMEKIAQQDFVNWLLAQK(Dodecyl)-NH2 [AT130 [hGIP(3-30)NH2[D15E; H18A]-C12/30]] | -5.1 | 49 | 8690 |  | 
14 | EGTFISDYSIAMDKIHQQDFVNWLLAQK(Stearoyl)-NH2 [AT115 [hGIP(3-30)NH2-C18/30]] | -6.9 |  | 134 |  | 
15 | EGTFISDYSIAMDK(Stearoyl)IHQQDFVNWLLAQK-NH2 [AT114 [hGIP(3-30)NH2-C18/16]] | -5.5 | 39 | 2960 | -7.2 | 46
